Laboratory results published in US20220280659A1, “Targeted Nanoparticles of Well-Defined and Reproducible Sizes” (STAMS DIAGNOSTICS GMBH, priority 2019, published 2022).

Assay: Zeta Potential (surface charge) by electrophoretic mobility / PCS, PSS NICOMP 380 DLS/ZLS
Assay type: physicochemical
Conditions: FIG. 5; pH 7
Procedure: The surface charge (also referred to as Zeta potential) of the nanoparticles was determined by measuring their electrophoretic mobility using a PSS NICOMP™ 380 DLS/ZLS. Measurements were made at particle concentrations of 6 to 15 mg/ml, temperatures between room temperature to 50° C., and applying an external voltage of 5 Volts.
The surface charge (also referred to as Zeta potential or ζ-potential) may be measured using Zeta Sizer as e.g. PSS NICOMP™ 380 DLS/ZLS. Zeta Charge, or Net Surface Charge of a molecule or a particle is measured by PCS in the presence of an applied electrical field.

human serum albumin [cleaned and stabilized albumin molecules]
global surface charge, PCS based measurement of the Zeta Potential: about −5 mV
